This is an account of results in paper PMC7442782, “Molecular basis for DNA repair synthesis on short gaps by mycobacterial Primase-Polymerase C” (Nature Communications, 2020).

Series [1] concerns the target T1, Prim–PolC (Msm Prim–PolC) (Mycolicibacterium smegmatis, UniProt A0R5T1).
T1 construct: gene ligD; residues 4-336 printed for the crystal structure (may be the ordered part of the full-length protein); N-terminal His tag, pET28, made in E. coli Origami B pLysS
T1 sequence (A0R5T1 4-336): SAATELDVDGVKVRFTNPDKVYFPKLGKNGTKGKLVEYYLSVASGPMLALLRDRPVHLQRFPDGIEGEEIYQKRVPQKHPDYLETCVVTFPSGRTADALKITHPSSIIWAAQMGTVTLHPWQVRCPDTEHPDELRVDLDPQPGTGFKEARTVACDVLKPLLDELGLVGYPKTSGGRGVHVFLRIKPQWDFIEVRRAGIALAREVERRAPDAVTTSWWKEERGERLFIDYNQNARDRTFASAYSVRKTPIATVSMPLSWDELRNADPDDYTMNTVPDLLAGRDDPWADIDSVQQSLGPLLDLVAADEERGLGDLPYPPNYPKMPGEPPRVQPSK
In words: X-ray crystal structure, […] Å. Format: binding. The settings on record: pre-catalytic ternary complex with 2-nt gapped DNA and two Mn2+; active site; pH 6.5.

The target of series [2] is T2, Prim-PolC (crystallisation construct) (UniProt A0R5T1 4-336).
T2 sequence: T1 sequence (A0R5T1 4-336)
In words: X-ray crystallography (2.0 A); Mn2+; PPi in one complex, 3'-dUTP in the other; Crystals: 0.05 M Na cacodylate pH 6.5, 2 M ammonium sulfate, 0.01 M MnCl2, 285 K, 300 uM protein:600 uM DNA; 2-AP assay: 0-1 uM protein, 1 uM DNA, 5 mM Ca2+, 250 uM ATP (buffer, pH and temperature not in material). The note with it: protein: recombinant; tags: N-terminal His; gapped duplex, 1-nt gap, blunt outer ends.

For series [3], the target named is T3, Prim-PolC WT (UniProt A0R5T1 1-350).
T3 sequence: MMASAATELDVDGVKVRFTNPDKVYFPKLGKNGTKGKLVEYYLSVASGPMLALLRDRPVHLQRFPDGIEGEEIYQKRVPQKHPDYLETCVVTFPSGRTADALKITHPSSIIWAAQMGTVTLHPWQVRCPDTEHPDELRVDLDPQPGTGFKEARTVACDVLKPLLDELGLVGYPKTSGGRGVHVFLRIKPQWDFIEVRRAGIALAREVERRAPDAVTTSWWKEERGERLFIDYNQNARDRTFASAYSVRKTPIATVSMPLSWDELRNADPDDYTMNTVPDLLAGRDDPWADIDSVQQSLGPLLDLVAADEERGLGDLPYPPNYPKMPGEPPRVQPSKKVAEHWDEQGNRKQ
In words: 2-aminopurine fluorescence (base flipping); 5 mM Ca2+, 250 uM ATP; Crystals: 0.05 M Na cacodylate pH 6.5, 2 M ammonium sulfate, 0.01 M MnCl2, 285 K, 300 uM protein:600 uM DNA; 2-AP assay: 0-1 uM protein, 1 uM DNA, 5 mM Ca2+, 250 uM ATP (buffer, pH and temperature not in material). The note with it: protein: recombinant, tags: N-terminal His, label: 2-AP, gapped duplex.

Series [4] concerns the target T4, Prim-PolC N321A (UniProt A0R5T1 1-350, N321A).
T4 sequence: T3 sequence with N321A
In words: 2-aminopurine fluorescence (base flipping); 5 mM Ca2+, 250 uM ATP; similar to WT; Crystals: 0.05 M Na cacodylate pH 6.5, 2 M ammonium sulfate, 0.01 M MnCl2, 285 K, 300 uM protein:600 uM DNA; 2-AP assay: 0-1 uM protein, 1 uM DNA, 5 mM Ca2+, 250 uM ATP (buffer, pH and temperature not in material). The note with it: protein: recombinant; tags: N-terminal His; label: 2-AP; gapped duplex, 1-nt gap.

Series [5] deals with T5, Prim-PolC N321G (UniProt A0R5T1 1-350, N321G).
T5 sequence: T3 sequence with N321G
The series is described as above. The note with it: protein: recombinant, tags: N-terminal His, label: 2-AP, gapped duplex.

Series [6] concerns the target T2, Prim-PolC (crystallisation construct). In words: X-ray crystallography (2.2 A); Mn2+, UpNHpp; Crystals: 0.05 M Na cacodylate pH 6.5, 2 M ammonium sulfate, 0.01 M MnCl2, 285 K, 300 uM protein:600 uM DNA; 2-AP assay: 0-1 uM protein, 1 uM DNA, 5 mM Ca2+, 250 uM ATP (buffer, pH and temperature not in material). The note with it: protein: recombinant; tags: N-terminal His; gapped duplex, 2-nt gap (AA), blunt outer ends.

Positions count from the first letter of the chain named.

Regarding `O=c1ccn([C@@H]2O[C@H](COP(=O)(O)NP(=O)(O)OP(=O)(O)O)[C@@H](O)[C@H]2O)c(=O)[nH]1` [UpNHpp], in series [1], the “X-ray crystal structure, 2.21 Å” value is “a non-hydrolysable incoming UTP ribonucleotide (UpNHpp) and manganese ions were also included”.

B1: 1-nt gapped post-catalytic DNA (mixed)
DNA 1: CGCTCGCAACGCACG
DNA 2: CGTGCGU
?: GCGAGCG
modifications: 5'-phosphate on D strand; primer 3' terminus is 3'-deoxyuridine (ribo, incorporated in situ)
As to B1, in series [2], the binding result is listed as “binds”.

B2: 2-AP 1-nt gap substrate (dsDNA)
DNA 1: AGTCGCATAGTGTAGTCATGTCGATTCGCCATAG
DNA 2: CTATGAGCGAATCGAC
DNA 3: CGACTACACTATGCGACT
modifications: 2-aminopurine at position 15 of primer oKZ282 (written A); 5'-phosphate on downstream strand
As for B2, the binding result in series [3] (1-nt gap), in series [4] and in series [5] (1-nt gap) was “binds” throughout.

B3: 2-AP 2-nt gap substrate (dsDNA)
DNA 1: B2 DNA 1
DNA 2: CTATGAGCGAATCGAC
DNA 3: GACTACACTATGCGACT
modifications: 2-aminopurine at position 15 of primer oKZ282 (written A); 5'-phosphate on downstream strand
As to B3, the binding result in series [3] (2-nt gap) was “binds”.

B4: 2-AP 3-nt gap substrate (dsDNA)
DNA 1: B2 DNA 1
DNA 2: CTATGAGCGAATCGAC
DNA 3: ACTACACTATGCGACT
modifications: 2-aminopurine at position 15 of primer oKZ282 (written A); 5'-phosphate on downstream strand
In the case of B4, the binding result in series [5] (3-nt gap) is “binds”.

B5: 2-nt gapped DNA T/P/D (dsDNA)
DNA 1: CGCTCGCAACGCACG
DNA 2: CGTGCG
DNA 3: GCGAGCG
modifications: 5'-phosphate on D strand
For the molecule B5, the binding result in series [6] is given as “binds”.
